Our source for the Kd, stoichiometry N and fold reduction of binding values is PMC5700061.

The target of assay [1] is Furin-resistant mouse proBrain-Derived Neurotrophic Factor (proBDNF) (mouse) (UniProt P21237). Kind of assay: SPR; MX96 (IBIS); NGF, proNGF and proBDNF amine-coupled to a P-COOH SensEye sensor, s-sortilin flowed over as analyte; 25 mM MES pH 5.0, 150 mM NaCl, 0.005% Tween 20, 25 °C; equilibrium binding, 1:1 Langmuir model. For orientation: Surface plasmon resonance follows binding to a sensor surface in real time, without labels.

In assay [2] the target is Mouse Nerve Growth Factor (NGF) (mouse) (UniProt P01139). The description is as above.
Sequence of Mouse Nerve Growth Factor (NGF) (mouse) (P01139 122-241): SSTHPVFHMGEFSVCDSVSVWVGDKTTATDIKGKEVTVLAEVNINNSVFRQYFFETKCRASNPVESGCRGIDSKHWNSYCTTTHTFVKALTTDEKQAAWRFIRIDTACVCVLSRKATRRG
The target in assay [3] is Mouse sortilin luminal segment (s-sortilin), wild type, native glycans (mouse). The assay can be described thus: SEC-MALS; Superdex 200 10/300 GL, 10 µl of 10 mg mL^-1 injected, 0.5 ml min^-1; 25 mM MES pH 5.0, 150 mM NaCl.
In assay [4] the target is Furin-resistant mouse proBrain-Derived Neurotrophic Factor (proBDNF) (mouse) (UniProt P21237). The assay can be described thus: SPR; equilibrium binding, IBIS MX96; NGF, proNGF and proBDNF amine-coupled, s-sortilin as analyte; 25 mM MES pH 5.0, 150 mM NaCl, 0.005% Tween 20, 25 °C; 1:1 Langmuir model.
Assay [5] has the same target. The assay can be described thus: SPR; equilibrium binding, IBIS MX96; NGF, proNGF and proBDNF amine-coupled, s-sortilin as analyte; 25 mM HEPES pH 7.4, 150 mM NaCl, 0.005% Tween 20, 25 °C; 1:1 Langmuir model.

Regarding “Mouse s-sortilin A464E, native glycans (domain or fragment)”, the Kd (usually the equilibrium constant for the complex coming apart) in assay [1] was 2280 nM; in assay [2], 730 nM.
As for “Mouse sortilin luminal segment (s-sortilin), wild type, native glycans (domain or fragment)”, the stoichiometry N (as a rule, a count of units in the complex or per binding partner) in assay [3] turned out to be 2.
In assay [4], “s-sortilin A464E (dimerization interface mutant of the mouse sortilin luminal segment) (domain or fragment)” showed a fold reduction of binding at pH 5.0 against pH 7.4 of 4 fold. This substance returned a Kd in assay [5] of 400 nM.
